Values joined by “and” are separate entries in the source; they are usually repeats but may differ in a detail not shown here. Equal entries are not always repeated.
T1: HIV-1 Vpr (WT), expressed from pNL4-3unc (HIV-1 (NL4-3-based proviral plasmid)), P12520
T1 chain: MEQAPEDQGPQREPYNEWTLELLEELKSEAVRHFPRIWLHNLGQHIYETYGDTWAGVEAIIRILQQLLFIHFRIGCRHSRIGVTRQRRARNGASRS

B1: HIV-1 Vpr (WT), expressed from pNL4-3unc, P12520 1-96 (natural protein)
chain: MEQAPEDQGPQREPYNEWTLELLEELKSEAVRHFPRIWLHNLGQHIYETYGDTWAGVEAIIRILQQLLFIHFRIGCRHSRIGVTRQRRARNGASRS

Tests used:
[1] = target: HIV-1 Vpr (WT), expressed from pNL4-3unc (UniProt P12520); assay: immunoblot of virions (Vpr incorporation, Vpr/CA ratio, LI-COR quantification); settings: equivalent RT units of virus concentrated by ultracentrifugation through a sucrose cushion; parent: est. 100; read off a plot
[2] = target: HIV-1 Gag p6 Mutant 4 (FRFG to alanines) (HIV-1 (NL4-3-based proviral plasmid)) (UniProt P12493); assay: virion incorporation (virions pelleted through sucrose, immunoblot); virus from 293T cells transfected with pNL4-3unc proviral plasmids (Gag and Vpr from the same construct); concentrated through a 20% (w/v) sucrose cushion, 2 h, 10,000 g, 4°C; equivalent RT units on SDS-PAGE; anti-Vpr and anti-CA immunoblot; Vpr/CA ratio relative to WT virions (LI-COR)
[3] = target: HIV-1 Gag p6 Mutant 11 (LXXL to alanines) (HIV-1 (NL4-3-based proviral plasmid)) (UniProt P12493); assay: as above
[4] = target: HIV-1 Gag p6 Mutant 12 (alanine substitutions in the LXXLF motif) (HIV-1 (NL4-3-based proviral plasmid)) (UniProt P12493); assay: as above
[5] = target: HIV-1 Gag with WT p6, expressed from pNL4-3unc (HIV-1 (NL4-3-based proviral plasmid)) (UniProt P12493); assay: as above
[6] = target: T1, HIV-1 Vpr (WT), expressed from …; assay: cross-linking; virions pelleted through sucrose, 1% formaldehyde in PBS 20 min at room temperature, quenched with 250 mM Tris-HCl pH 7.5, pelleted again through sucrose, SDS-PAGE and anti-Vpr immunoblot; settings: remark: other sources report otherwise

Row | Molecule | percent of parent [1] | also measured
1 | HIV-1 Gag with WT p6, expressed from pNL4-3unc (from UniProt P12493) K27A; Q28A; E29A; P30A | 93 % WT | 
2 | HIV-1 Gag with WT p6, expressed from pNL4-3unc (from UniProt P12493) P49A; S50A; S51A; Q52A | 76 % WT | 
3 | HIV-1 Vpr (WT), expressed from pNL4-3unc (from UniProt P12520 1-96) (natural protein) |  | Vpr incorporated, % of WT virions (Vpr/CA ratio) [2]: < 30%; Vpr incorporated, % of WT virions (Vpr/CA ratio) [3]: < 30%; Vpr incorporated, % of WT virions (Vpr/CA ratio) [4]: < 30%
4 | HIV-1 Gag with WT p6, expressed from pNL4-3unc (from UniProt P12493) E34A; L35A; Y36A | 73 % WT | 
5 | HIV-1 Gag with WT p6, expressed from pNL4-3unc (from UniProt P12493) I31A; D32A; K33A | 90 % WT | 
6 | HIV-1 Gag with WT p6, expressed from pNL4-3unc (from UniProt P12493) P37A; L38A; S40A | 62 % WT | 
7 | HIV-1 Gag with WT p6, expressed from pNL4-3unc (from UniProt P12493) T23A; P24A; S25A; Q26A | 59 % WT | 
8 | HIV-1 Gag with WT p6, expressed from pNL4-3unc (from UniProt P12493) E19A; E20A; T21A; T22A | 52 % WT | 
9 | HIV-1 Gag with WT p6, expressed from pNL4-3unc (from UniProt P12493) P11A; E12A; E13A; S14A | 62 % WT | 
10 | HIV-1 Gag with WT p6, expressed from pNL4-3unc (from UniProt P12493) R4A; P5A; E6A | 85 % WT | 
11 | HIV-1 Vpr L67A (from UniProt P12520 1-96) (natural protein) |  | fold lower Vpr packaging than the same p6 mutant with WT Vpr [2]: > 10 fold; fold lower Vpr packaging than the same p6 mutant with WT Vpr [3]: > 10 fold; fold reduction of Vpr incorporation against WT Vpr [5]: 2 fold
12 | B1 |  | stoichiometry N [6]: 2 and 3

From article PMC8354229
